Test [1] addresses T1, recombinant nidogen (Mus musculus (Mouse)) (UniProt P10493).
T1 sequence: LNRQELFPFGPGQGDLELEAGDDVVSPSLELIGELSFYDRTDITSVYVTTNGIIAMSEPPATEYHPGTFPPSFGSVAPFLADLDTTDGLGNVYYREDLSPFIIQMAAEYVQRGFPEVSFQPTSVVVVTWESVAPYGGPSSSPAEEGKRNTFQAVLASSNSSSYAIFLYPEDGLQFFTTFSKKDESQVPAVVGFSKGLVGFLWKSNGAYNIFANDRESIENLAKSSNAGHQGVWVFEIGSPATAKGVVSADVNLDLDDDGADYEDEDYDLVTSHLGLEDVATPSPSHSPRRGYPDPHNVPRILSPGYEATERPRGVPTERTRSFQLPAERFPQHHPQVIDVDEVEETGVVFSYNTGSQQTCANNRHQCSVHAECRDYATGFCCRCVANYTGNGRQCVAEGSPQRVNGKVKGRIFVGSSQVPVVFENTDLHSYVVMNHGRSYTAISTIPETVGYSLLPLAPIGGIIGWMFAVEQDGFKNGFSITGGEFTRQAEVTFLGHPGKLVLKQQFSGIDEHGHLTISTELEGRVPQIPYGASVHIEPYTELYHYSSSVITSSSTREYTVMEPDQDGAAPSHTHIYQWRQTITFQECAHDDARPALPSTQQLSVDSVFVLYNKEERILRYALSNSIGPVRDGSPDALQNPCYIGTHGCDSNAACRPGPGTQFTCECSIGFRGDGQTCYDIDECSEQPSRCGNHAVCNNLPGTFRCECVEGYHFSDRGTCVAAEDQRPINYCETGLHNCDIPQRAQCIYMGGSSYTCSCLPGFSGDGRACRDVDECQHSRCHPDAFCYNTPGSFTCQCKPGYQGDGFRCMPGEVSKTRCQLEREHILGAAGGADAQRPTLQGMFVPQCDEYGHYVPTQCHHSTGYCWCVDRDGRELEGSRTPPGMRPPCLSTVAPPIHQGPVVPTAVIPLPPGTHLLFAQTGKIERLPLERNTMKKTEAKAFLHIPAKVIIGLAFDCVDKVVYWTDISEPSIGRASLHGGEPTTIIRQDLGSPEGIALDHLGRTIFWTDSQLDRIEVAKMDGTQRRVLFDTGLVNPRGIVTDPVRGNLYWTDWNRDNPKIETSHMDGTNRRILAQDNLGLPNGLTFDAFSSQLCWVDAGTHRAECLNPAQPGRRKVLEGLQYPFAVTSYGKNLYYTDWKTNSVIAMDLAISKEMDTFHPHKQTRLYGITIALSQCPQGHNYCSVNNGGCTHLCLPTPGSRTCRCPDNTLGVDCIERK
The test is described as follows: radioligand competition assay.

The target in test [2] is T1, recombinant nidogen (Mus musculus (Mouse)). The test is described as follows: radioligand competition assay: inhibitor varied, 0.2 nM recombinant nidogen, 125I-laminin fragment P1.
Test [3] deals with T2, nidogen (Mus musculus, UniProt P10493).
T2 sequence (P10493 29-1245): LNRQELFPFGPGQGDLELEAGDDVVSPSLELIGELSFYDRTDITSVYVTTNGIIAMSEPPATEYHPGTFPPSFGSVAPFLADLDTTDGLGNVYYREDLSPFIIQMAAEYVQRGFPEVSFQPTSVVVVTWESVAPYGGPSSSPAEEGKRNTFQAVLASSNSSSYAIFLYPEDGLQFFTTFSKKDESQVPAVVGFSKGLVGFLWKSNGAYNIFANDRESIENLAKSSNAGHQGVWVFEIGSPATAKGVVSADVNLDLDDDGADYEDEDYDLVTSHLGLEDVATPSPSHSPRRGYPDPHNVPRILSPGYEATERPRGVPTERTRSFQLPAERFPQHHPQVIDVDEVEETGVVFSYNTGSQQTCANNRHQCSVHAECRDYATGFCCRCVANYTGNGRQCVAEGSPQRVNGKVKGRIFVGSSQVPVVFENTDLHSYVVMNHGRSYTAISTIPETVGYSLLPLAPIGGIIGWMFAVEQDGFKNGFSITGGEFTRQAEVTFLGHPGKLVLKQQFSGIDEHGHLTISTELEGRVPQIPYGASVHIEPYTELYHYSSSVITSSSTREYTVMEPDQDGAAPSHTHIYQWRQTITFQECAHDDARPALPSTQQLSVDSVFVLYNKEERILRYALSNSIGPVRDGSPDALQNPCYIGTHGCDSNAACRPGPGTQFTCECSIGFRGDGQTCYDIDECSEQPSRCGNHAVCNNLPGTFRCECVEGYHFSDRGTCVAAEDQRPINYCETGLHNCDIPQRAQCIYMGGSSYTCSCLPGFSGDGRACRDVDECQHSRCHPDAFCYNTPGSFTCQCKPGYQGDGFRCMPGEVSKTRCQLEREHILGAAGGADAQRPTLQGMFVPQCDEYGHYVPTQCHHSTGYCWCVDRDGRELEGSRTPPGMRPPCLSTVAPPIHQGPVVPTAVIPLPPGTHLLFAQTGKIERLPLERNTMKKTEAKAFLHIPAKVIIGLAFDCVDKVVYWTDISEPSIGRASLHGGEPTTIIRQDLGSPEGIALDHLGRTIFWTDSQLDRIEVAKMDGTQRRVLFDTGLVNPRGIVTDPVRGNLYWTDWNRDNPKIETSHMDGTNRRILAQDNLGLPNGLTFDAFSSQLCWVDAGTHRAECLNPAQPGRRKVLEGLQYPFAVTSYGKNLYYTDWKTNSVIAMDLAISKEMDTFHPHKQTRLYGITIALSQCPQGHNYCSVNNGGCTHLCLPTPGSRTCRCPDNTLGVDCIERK
The test is described as follows: Radioligand competition assay: inhibition of 125I-laminin fragment P1 binding to nidogen. The procedure:
A radioligand competition assay was used for measurement of relative binding affinities (Mann K. et al. (1988), Eur. J. Biochem., 178, 71-80; Fox, J. W. et al. (1991), EMBO J., 10, 3137-3146). A fixed concentration of recombinant nidogen (0.2 nM) was incubated overnight at 4° C. with inhibitors at varying concentrations, followed by the addition of ^125 I-labeled laminin fragment P1 (0.01 nM; 10,000-20,000 c.p.m.) for the same incubation period. Bound and non-bound fragment P1 was then separated by antibodies against nidogen. Competitor concentrations causing 50% inhibition (IC50) were determined from dose-response profiles. […] IC50 values compared from different assays were normalized to a single fragment P1 value.

Test [4] concerns the target T3, recombinant nidogen (Mus musculus (Mouse), UniProt P10493).
T3 sequence: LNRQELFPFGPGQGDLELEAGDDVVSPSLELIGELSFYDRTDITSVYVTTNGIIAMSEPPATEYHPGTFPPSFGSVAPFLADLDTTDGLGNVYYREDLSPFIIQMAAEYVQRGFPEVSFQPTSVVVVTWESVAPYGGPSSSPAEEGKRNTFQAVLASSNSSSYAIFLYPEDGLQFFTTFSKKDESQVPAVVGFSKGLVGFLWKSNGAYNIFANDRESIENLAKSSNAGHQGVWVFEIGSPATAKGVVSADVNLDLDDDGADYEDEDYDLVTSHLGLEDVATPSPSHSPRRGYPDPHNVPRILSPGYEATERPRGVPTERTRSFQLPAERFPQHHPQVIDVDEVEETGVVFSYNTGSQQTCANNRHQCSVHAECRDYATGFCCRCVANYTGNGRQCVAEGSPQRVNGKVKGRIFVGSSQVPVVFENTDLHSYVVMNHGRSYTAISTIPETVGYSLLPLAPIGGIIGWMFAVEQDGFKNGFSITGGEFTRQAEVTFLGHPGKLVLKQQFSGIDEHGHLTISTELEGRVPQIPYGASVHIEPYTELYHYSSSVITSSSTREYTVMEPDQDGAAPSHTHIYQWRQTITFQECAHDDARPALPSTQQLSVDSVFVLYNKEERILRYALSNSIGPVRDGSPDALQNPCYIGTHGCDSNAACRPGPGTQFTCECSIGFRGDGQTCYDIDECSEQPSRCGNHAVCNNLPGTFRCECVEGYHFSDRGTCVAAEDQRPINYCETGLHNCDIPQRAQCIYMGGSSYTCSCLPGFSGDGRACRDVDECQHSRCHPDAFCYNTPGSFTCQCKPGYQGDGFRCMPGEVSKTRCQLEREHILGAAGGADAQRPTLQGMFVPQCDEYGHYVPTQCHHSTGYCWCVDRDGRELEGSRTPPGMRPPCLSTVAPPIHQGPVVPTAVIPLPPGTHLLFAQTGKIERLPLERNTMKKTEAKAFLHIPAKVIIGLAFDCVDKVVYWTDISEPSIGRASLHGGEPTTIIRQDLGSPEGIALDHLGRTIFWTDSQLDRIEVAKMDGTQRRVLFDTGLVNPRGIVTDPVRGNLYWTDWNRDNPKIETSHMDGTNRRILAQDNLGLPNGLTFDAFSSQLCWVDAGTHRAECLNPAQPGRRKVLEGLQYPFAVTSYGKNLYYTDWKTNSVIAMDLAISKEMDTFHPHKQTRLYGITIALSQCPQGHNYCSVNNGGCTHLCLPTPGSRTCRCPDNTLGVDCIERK
The test is described as follows: radioligand competition assay: inhibitor varied, 0.2 nM recombinant nidogen, 125I-laminin fragment P1. On the procedure: (§1) A radioligand competition assay was used for measurement of relative binding affinities (Mann K. et al. (1988), Eur. J. Biochem., 178, 71–80; Fox, J. W. et al. (1991), EMBO J., 10, 3137–3146). A fixed concentration of recombinant nidogen (0.2 nM) was incubated overnight at 4° C. with inhibitors at varying concentrations, followed by the addition of ^125I-labeled laminin fragment P1 (0.01 nM; 10,000–20,000 c.p.m.) for the same incubation period. Bound and non-bound fragment P1 was then separated by antibodies against nidogen.

Test [5] has as its target T3, recombinant nidogen. The description is as above. The procedure:
as §1
This is another data set of the same source.

[6] abbreviates: Table IV, recombinant mutants and chimeric structures of γ1III4, read-out: IC50 (inhibitory activity for laminin-nidogen binding).

Read-outs that look alike come from different tables or passages of the source. Where no end group is shown, it is not given here. The star is where a group is joined. Nle‑OMe = norleucine methyl ester coupled to carboxyl groups via carbodiimide, CCCC[C@H](N*)C(=O)OC; Succinimide(1-Et,3-yl) = CCN1C(=O)CC(*)C1=O Bounds are passed on as bounds.

As to IOPNAVGN (S, 799-806) (peptide), the fold loss in activity in test [1] was determined as 2 fold.

In the case of T1, 792-809 (peptide), the IC50 in test [2] turned out to be 500 nM.

In the case of “synthetic loop a,b, non-oxidized (792-815) (peptide)”, the fold higher IC50 than fragment P1 in test [1] came out at 5000 fold. Moreover, the IC50 in test [2] was determined as 400 nM.

As for γ1III3-5Δ4 (from UniProt P02468), the IC50 in test [2] was more than 3200 nM.

γ1III3ab4cd (from UniProt P02468): the IC50 in test [2] turned out to be 1100 nM.

For “γ1III4Y819/825-A, reduced: γ1III4Y819/825-A reduced and alkylated under denaturing conditions”, the IC50 in test [3] (setting [6]) came to 430 nM.

Consider “γ1III4Y819/825-A: recombinant γ1III4 with Tyr819 and Tyr825 mutated to Ala”, for which the 50% inhibitory concentration (IC50) in test [3] (setting [6]) was found to be 1.5 nM. The “decrease in activity after reduction and alkylation” value in test [3] (reduced and alkylated under denaturing conditions versus disulfide-bonded form) is ~ 300 fold.

In the case of “γ1III4Y825-A: recombinant γ1III4 with Tyr825 mutated to Ala”, the IC50 in test [3] (setting [6]) is 0.06 nM. The “inhibitory activity in words” value in test [3] (laminin-nidogen binding competition) is recorded as “without significant effect on inhibitory activity”.

For the molecule γ1III4ab3cd (from UniProt P02468), in test [1], the fold higher activity than synthetic oxidized loop a,b is 3 fold and the further fold decrease in activity against modification of Tyr819 stood at 30 fold. Further, in test [2], the half-maximal inhibitory concentration (IC50) was 80 nM.

Turning to “γ1III4ab3cd: recombinant chimera: loop a,b of repeat 4 with loop c,d of repeat 3 (PCQCNDNIDPNAVGNCNRLTGECLKCPTGTAGKRCELCDDGYFGDPLGSNGPVRLCR)”, the IC50 in test [3] (setting [6]) and in test [3] (read-out: IC50) was 80 nM each time. Further, in test [3] (loop c replaced by loop c of a non-binding repeat, relative to the Tyr819 modification), the “further decrease in activity” value amounted to 30 fold. The “higher inhibitory activity compared with loop a,b” value in test [3] (relative to synthetic loop a,b peptide) was 3 fold.

B1: synthetic loop a,b, amidated (792-815) (peptide)
peptide: PCQCND(Nle‑OMe)NTD(Nle‑OMe)PNAVGNCNRLTGE(Nle‑OMe)CL
modifications: not fully specified; cysteine pairing not given here; also: carboxyl groups of Asp and Glu blocked with norleucine methyl ester (amidation), sites not placed
In the case of B1, in test [4], the IC50 is more than 5400 nM.

B2: NIDPNAVGN (S, 798-806) (peptide)
peptide: NIDPNAVGN
Take B2: the IC50 in test [4] came to 600 nM.

B3: NVDPNAS (peptide)
peptide: NVDPNAS
In the case of B3, in test [4], the binding result is listed as “no binding (tested: >160,000 nM)”.

B4: γ1III4ab3cd, reduced (other)
chain: PC(Succinimide(1-Et,3-yl))QC(Succinimide(1-Et,3-yl))NDNIDPNAVGNC(Succinimide(1-Et,3-yl))NRLTGEC(Succinimide(1-Et,3-yl))LKC(Succinimide(1-Et,3-yl))PTGTAGKRC(Succinimide(1-Et,3-yl))ELC(Succinimide(1-Et,3-yl))DDGYFGDPLGSNGPVRLC(Succinimide(1-Et,3-yl))R
As to B4, in test [5], the concentration for half-maximal inhibition (IC50) stood at 520 nM.

The record behind these values is patent publication US5493008A, “Two non-contiguous regions contribute to nidogen binding to a single EGF-like motif of the laminin γ1 chain” (The University Of Virginia Patent Foundation, priority 1994, dated 1996).
